Ends that are not written are not given here. * marks the point of attachment. C16 diacid = O=C(O)CCCCCCCCCCCCCCC(=O)*; Stearoyl = CCCCCCCCCCCCCCCCCC(=O)*; Palmitoyl = CCCCCCCCCCCCCCCC(=O)*; Myristoyl = CCCCCCCCCCCCCC(=O)*; Lauroyl = CCCCCCCCCCCC(=O)*
T1: human GIP receptor (human, UniProt P48546 22-466)
T1 construct: whole, on cells; also called hGIPR
T1 sequence (looked up): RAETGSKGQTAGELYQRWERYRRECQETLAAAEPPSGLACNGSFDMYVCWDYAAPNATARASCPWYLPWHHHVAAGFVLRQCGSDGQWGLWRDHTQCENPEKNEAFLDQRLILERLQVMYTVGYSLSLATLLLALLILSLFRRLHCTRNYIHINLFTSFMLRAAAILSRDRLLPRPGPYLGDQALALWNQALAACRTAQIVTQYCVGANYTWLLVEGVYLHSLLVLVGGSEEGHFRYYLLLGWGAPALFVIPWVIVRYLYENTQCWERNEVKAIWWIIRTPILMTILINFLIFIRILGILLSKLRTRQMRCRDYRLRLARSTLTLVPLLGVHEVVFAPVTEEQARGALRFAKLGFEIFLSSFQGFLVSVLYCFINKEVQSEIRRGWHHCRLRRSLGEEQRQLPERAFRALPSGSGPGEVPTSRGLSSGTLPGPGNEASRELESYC

B1: AT154 [hGIP(3-30)NH2-C12/16] (peptide)
peptide: EGTFISDYSIAMDK(Lauroyl)IHQQDFVNWLLAQK-NH2
notes: printed with the same formula as AT102 but a different ID and different values
B2: AT158 [hGIP(3-30)NH2[H18K]-C16diacid/18] (peptide)
peptide: EGTFISDYSIAMDKIK(C16 diacid)QQDFVNWLLAQK-NH2
modifications: N-terminus assumed
SMILES: CC[C@H](C)[C@H](NC(=O)[C@H](CO)NC(=O)[C@H](Cc1ccc(O)cc1)NC(=O)[C@H](CC(=O)O)NC(=O)[C@H](CO)NC(=O)[C@@H](NC(=O)[C@H](Cc1ccccc1)NC(=O)[C@@H](NC(=O)CNC(=O)[C@@H](N)CCC(=O)O)[C@@H](C)O)[C@@H](C)CC)C(=O)N[C@@H](C)C(=O)N[C@@H](CCSC)C(=O)N[C@@H](CC(=O)O)C(=O)N[C@@H](CCCCN)C(=O)N[C@H](C(=O)N[C@@H](CCCCNC(=O)CCCCCCCCCCCCCCC(=O)O)C(=O)N[C@@H](CCC(N)=O)C(=O)N[C@@H](CCC(N)=O)C(=O)N[C@@H](CC(=O)O)C(=O)N[C@@H](Cc1ccccc1)C(=O)N[C@H](C(=O)N[C@@H](CC(N)=O)C(=O)N[C@@H](Cc1c[nH]c2ccccc12)C(=O)N[C@@H](CC(C)C)C(=O)N[C@@H](CC(C)C)C(=O)N[C@@H](C)C(=O)N[C@@H](CCC(N)=O)C(=O)N[C@@H](CCCCN)C(N)=O)C(C)C)[C@@H](C)CC
B3: AT163 [hGIP(3-30)NH2[H18K]-C16/16] (peptide)
peptide: EGTFISDYSIAMDK(Palmitoyl)IKQQDFVNWLLAQK-NH2
modifications: N-terminus assumed
SMILES: CCCCCCCCCCCCCCCC(=O)NCCCC[C@H](NC(=O)[C@H](CC(=O)O)NC(=O)[C@H](CCSC)NC(=O)[C@H](C)NC(=O)[C@@H](NC(=O)[C@H](CO)NC(=O)[C@H](Cc1ccc(O)cc1)NC(=O)[C@H](CC(=O)O)NC(=O)[C@H](CO)NC(=O)[C@@H](NC(=O)[C@H](Cc1ccccc1)NC(=O)[C@@H](NC(=O)CNC(=O)[C@@H](N)CCC(=O)O)[C@@H](C)O)[C@@H](C)CC)[C@@H](C)CC)C(=O)N[C@H](C(=O)N[C@@H](CCCCN)C(=O)N[C@@H](CCC(N)=O)C(=O)N[C@@H](CCC(N)=O)C(=O)N[C@@H](CC(=O)O)C(=O)N[C@@H](Cc1ccccc1)C(=O)N[C@H](C(=O)N[C@@H](CC(N)=O)C(=O)N[C@@H](Cc1c[nH]c2ccccc12)C(=O)N[C@@H](CC(C)C)C(=O)N[C@@H](CC(C)C)C(=O)N[C@@H](C)C(=O)N[C@@H](CCC(N)=O)C(=O)N[C@@H](CCCCN)C(N)=O)C(C)C)[C@@H](C)CC
B4: AT160 [hGIP(3-30)NH2[H18K]-C18/18] (peptide)
peptide: EGTFISDYSIAMDKIK(Stearoyl)QQDFVNWLLAQK-NH2
modifications: N-terminus assumed
SMILES: CCCCCCCCCCCCCCCCCC(=O)NCCCC[C@H](NC(=O)[C@@H](NC(=O)[C@H](CCCCN)NC(=O)[C@H](CC(=O)O)NC(=O)[C@H](CCSC)NC(=O)[C@H](C)NC(=O)[C@@H](NC(=O)[C@H](CO)NC(=O)[C@H](Cc1ccc(O)cc1)NC(=O)[C@H](CC(=O)O)NC(=O)[C@H](CO)NC(=O)[C@@H](NC(=O)[C@H](Cc1ccccc1)NC(=O)[C@@H](NC(=O)CNC(=O)[C@@H](N)CCC(=O)O)[C@@H](C)O)[C@@H](C)CC)[C@@H](C)CC)[C@@H](C)CC)C(=O)N[C@@H](CCC(N)=O)C(=O)N[C@@H](CCC(N)=O)C(=O)N[C@@H](CC(=O)O)C(=O)N[C@@H](Cc1ccccc1)C(=O)N[C@H](C(=O)N[C@@H](CC(N)=O)C(=O)N[C@@H](Cc1c[nH]c2ccccc12)C(=O)N[C@@H](CC(C)C)C(=O)N[C@@H](CC(C)C)C(=O)N[C@@H](C)C(=O)N[C@@H](CCC(N)=O)C(=O)N[C@@H](CCCCN)C(N)=O)C(C)C
B5: AT159 [hGIP(3-30)NH2[K16R; H18K; K30R]-C16diacid/18] (peptide)
peptide: EGTFISDYSIAMDRIK(C16 diacid)QQDFVNWLLAQR-NH2
modifications: N-terminus assumed
SMILES: CC[C@H](C)[C@H](NC(=O)[C@H](CO)NC(=O)[C@H](Cc1ccc(O)cc1)NC(=O)[C@H](CC(=O)O)NC(=O)[C@H](CO)NC(=O)[C@@H](NC(=O)[C@H](Cc1ccccc1)NC(=O)[C@@H](NC(=O)CNC(=O)[C@@H](N)CCC(=O)O)[C@@H](C)O)[C@@H](C)CC)C(=O)N[C@@H](C)C(=O)N[C@@H](CCSC)C(=O)N[C@@H](CC(=O)O)C(=O)N[C@@H](CCCNC(=N)N)C(=O)N[C@H](C(=O)N[C@@H](CCCCNC(=O)CCCCCCCCCCCCCCC(=O)O)C(=O)N[C@@H](CCC(N)=O)C(=O)N[C@@H](CCC(N)=O)C(=O)N[C@@H](CC(=O)O)C(=O)N[C@@H](Cc1ccccc1)C(=O)N[C@H](C(=O)N[C@@H](CC(N)=O)C(=O)N[C@@H](Cc1c[nH]c2ccccc12)C(=O)N[C@@H](CC(C)C)C(=O)N[C@@H](CC(C)C)C(=O)N[C@@H](C)C(=O)N[C@@H](CCC(N)=O)C(=O)N[C@@H](CCCNC(=N)N)C(N)=O)C(C)C)[C@@H](C)CC
B6: AT148 [hGIP(3-30)NH2-C12/3] (peptide)
peptide: Lauroyl-EGTFISDYSIAMDKIHQQDFVNWLLAQK-NH2
notes: printed with the same formula as AT101 but a different ID and different values

Target: T1, human GIP receptor
Assay: 125I-hGIP competition binding, COS-7 cells expressing hGIPR;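 also: nonspecific binding taken as radioligand bound by untransfected cells, binding buffer with or without 2% HSA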
Procedure: After incubation, the cells were washed twice in ice-cold binding buffer (+/−2% HSA) and lysed using 200 mM NaOH with 1% SDS for 30 min. Nonspecific binding was determined as the binding of radioactive ligand to untransfected cells.

Binder | IC50 | log IC50
EGTFISDYSIAMDKIHQQDFVNWLLAQK(Palmitoyl)-NH2 [AT106 [hGIP(3-30)NH2-C16/30]] | 1410 nM | -5.9 log M
Stearoyl-EGTFISDYSIAMDKIHQQDFVNWLLAQK-NH2 [AT113 [hGIP(3-30)NH2-C18/3]] | 41400 nM | -4.4 log M
Palmitoyl-EGTFISDYSIAMDKIHQQDFVNWLLAQK-NH2 [AT104 [hGIP(3-30)NH2-C16/3]] | 75 nM | -7.1 log M
EGTFISDYSIAMDKIHQQDFVNWLLAQK(Lauroyl)-NH2 [AT103 [hGIP(3-30)NH2-C12/30]] | 4710 nM | -5.3 log M
B1 | 27 nM | -8 log M
Myristoyl-EGTFISDYSIAMDKIHQQDFVNWLLAQK-NH2 [AT110 [hGIP(3-30)NH2-C14/3]] | 55.5 nM | -7.3 log M
EGTFISDYSIAMDK(Lauroyl)IHQQDFVNWLLAQK-NH2 [AT102 [hGIP(3-30)NH2-C12/16]] | 59.1 nM | -7.2 log M
B2 | 8.2 nM | 
B3 | 205 nM | 
B4 | 49 nM | 
B5 | 18 nM | 
B6 | 24 nM | -8 log M
EGTFISDYSIAMDKIHQQDFVNWLLAQK(Myristoyl)-NH2 [AT112 [hGIP(3-30)NH2-C14/30]] | 451 nM | -6.3 log M
EGTFISDYSIAMDK(Palmitoyl)IHQQDFVNWLLAQK-NH2 [AT105 [hGIP(3-30)NH2-C16/16]] | 522 nM | -6.3 log M
EGTFISDYSIAMDKIHQQDFVNWLLAQK(Stearoyl)-NH2 [AT115 [hGIP(3-30)NH2-C18/30]] | 1520 nM | -5.8 log M

Source: US20200087373A1 (UNIVERSITY OF COPENHAGEN, published 2020)
